Measurements published in PMC11670205 (Frontiers in Immunology, 2024).
One block for each molecule: values may come before it.

What was measured:
[1] = molecular target: human TSLP receptor complex composed of IL-7Rα and TSLPR expressed on cell surface of transfected HEK293T (human) (UniProt Q9HC73)
[2] = molecular target: T1, recombinant cynomolgus monkey TSLP (Macaca fascicularis, UniProt A0A7N9CAT7); test: ELISA; recombinant TSLP coated at 1 μg/mL in DPBS pH 7.2 overnight at 4°C; antibodies in serial 3-fold dilutions from 1 μg/mL, 2 hours at room temperature; HRP anti-human IgG detection; conditions: both partners purified
T1 construct: thymic stromal lymphopoietin, cynomolgus monkey; source: bought: AcroBiosystems

recombinant mouse TSLP = molecular target: T2, recombinant mouse TSLP (Mus musculus, UniProt Q9JIE6); test: as above; conditions: both partners purified
T2 construct: thymic stromal lymphopoietin, mouse; also called murine TSLP; source: bought: AcroBiosystems
T2 sequence (Q9JIE6 20-140): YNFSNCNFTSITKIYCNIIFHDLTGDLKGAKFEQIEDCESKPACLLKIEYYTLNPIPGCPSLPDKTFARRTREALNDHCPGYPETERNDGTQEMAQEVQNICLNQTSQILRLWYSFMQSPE

human TSLP receptor complex composed of IL-7Rα and TSLPR expressed on cell surface of transfected HEK293T (human), sequence (Q9HC73 23-371, chain 1 of 2): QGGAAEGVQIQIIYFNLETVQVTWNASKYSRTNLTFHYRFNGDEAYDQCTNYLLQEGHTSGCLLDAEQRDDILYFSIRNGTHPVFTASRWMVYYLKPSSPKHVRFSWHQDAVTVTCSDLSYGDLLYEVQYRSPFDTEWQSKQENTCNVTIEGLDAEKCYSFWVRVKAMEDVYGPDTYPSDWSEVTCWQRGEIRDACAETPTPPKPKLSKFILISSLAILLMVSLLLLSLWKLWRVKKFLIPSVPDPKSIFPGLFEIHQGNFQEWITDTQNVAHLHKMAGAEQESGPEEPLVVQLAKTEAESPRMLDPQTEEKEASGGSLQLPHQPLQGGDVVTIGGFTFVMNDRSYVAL
human TSLP receptor complex composed of IL-7Rα and TSLPR expressed on cell surface of transfected HEK293T (human), sequence (chain, as listed by the source, chain 2 of 2): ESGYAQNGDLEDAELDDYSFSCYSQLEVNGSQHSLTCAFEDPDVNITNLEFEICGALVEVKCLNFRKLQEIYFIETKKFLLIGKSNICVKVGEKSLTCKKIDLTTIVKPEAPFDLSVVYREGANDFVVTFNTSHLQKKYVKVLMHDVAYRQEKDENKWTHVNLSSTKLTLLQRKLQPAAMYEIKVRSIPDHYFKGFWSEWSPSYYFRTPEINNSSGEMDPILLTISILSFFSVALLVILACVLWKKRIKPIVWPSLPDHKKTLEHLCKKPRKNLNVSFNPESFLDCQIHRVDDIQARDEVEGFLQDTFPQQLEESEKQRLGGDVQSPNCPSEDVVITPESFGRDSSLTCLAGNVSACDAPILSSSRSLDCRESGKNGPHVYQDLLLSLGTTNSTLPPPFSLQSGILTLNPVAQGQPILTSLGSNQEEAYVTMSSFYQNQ

EC50 of TSLP-driven STAT5 luciferase reporter gene expression in HEK293T cells transfected with TSLPR and IL-7Rα [1]: 1.1 ng/mL
Molecule: recombinant human thymic stromal lymphopoietin (from UniProt Q969D9 29-159) (ligand)

binding result [2]: binds
binding result (recombinant mouse TSLP): no binding (tested: 1 μg/mL)
B1: tezepelumab analogue antibody (antibody, V domains shown)
VH: QMQLVESGGGVVQPGRSLRLSCAASGFTFRTYGMHWVRQAPGKGLEWVAVIWYDGSNKHYADSVKGRFTITRDNSKNTLNLQMNSLRAEDTAVYYCARAPQWELVHEAFDIWGQGTMVTVSS
VL: SYVLTQPPSVSVAPGQTARITCGGNNLGSKSVHWYQQKPGQAPVLVVYDDSDRPSWIPERFSGSNSGNTATLTISRGEAGDEADYYCQVWDSSSDHVVFGGGTKLTVL
notes: heavy chain of tezepelumab as deposited in PDB 5J13; rest of the heavy chain constant region (hinge, Fc) beyond what the PDB entry holds; light chain of tezepelumab as deposited in PDB 5J13; It was captured by anti-Fc probes and detected with anti-human IgG; also called AMG157; MEDI9929; source: Expi293F, transfected, purified (MabSelect SuRe, desalting column)
